US20210147561A1 (published 2021)

What was measured:
[1] = target: T1, CD123 (interleukin-3 receptor alpha, IL3RA) (human, UniProt P26951 19-378)
T1 chain: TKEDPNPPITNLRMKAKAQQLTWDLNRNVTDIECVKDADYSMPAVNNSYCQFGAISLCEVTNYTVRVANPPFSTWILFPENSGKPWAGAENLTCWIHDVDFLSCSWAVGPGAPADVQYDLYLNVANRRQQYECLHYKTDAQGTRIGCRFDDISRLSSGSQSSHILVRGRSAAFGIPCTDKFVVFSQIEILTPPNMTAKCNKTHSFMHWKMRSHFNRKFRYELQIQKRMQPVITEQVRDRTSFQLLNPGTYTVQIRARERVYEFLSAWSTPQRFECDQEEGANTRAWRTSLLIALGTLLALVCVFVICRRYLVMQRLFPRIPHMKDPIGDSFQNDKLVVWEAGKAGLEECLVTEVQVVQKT

[2] = target: T1, CD123 (interleukin-3 receptor alpha, …)

B1: 7G3_H1L1_Fab_His (XENP 13761) (antibody, V domains shown)
VH: QVQLVQSGAEVKKPGASVKVSCKASGYTFTDYYMKWVRQAPGQSLEWMGDIIPSNGATFYNQKFQGRVTMTVDRSTSTAYMELSSLRSEDTAVYYCTRSHLLRASWFAYWGQGTLVTVSS
VL: DFVMTQSPDSLAVSLGERATINCKSSQSLLNSGNQKNYLTWYQQKPGQPPKLLIYWASTRESGVPDRFTGSGSGTDFTLTISSLQAEDVAVYYCQNDYSYPYTFGGGTKLEIKR
**Q.** For B1, which Ka [1] is on record?
**A.** 4.81e+08 M⁻¹

**Q.** What about the Kd [2] of the same binder?
**A.** 2.08 nM
